Assay [1] addresses human ILT3 on the cell surface (recombinant human ILT3 exogenously overexpressed on HEK cells; ILT3 on THP-1 cells, DCs, macrophages) (human) (UniProt Q8NHJ6). As to the kind of experiment: flow cytometry on HEK cells overexpressing recombinant human ILT3. (In general: In flow cytometry, cells or beads pass a laser one at a time.)
The target is the same in assay [2]. The assay can be described thus: cell-based or functional assay.

Chain of fibronectin (FN1), P02751 32-2477 (ligand) (P02751 32-2477 limits assumed): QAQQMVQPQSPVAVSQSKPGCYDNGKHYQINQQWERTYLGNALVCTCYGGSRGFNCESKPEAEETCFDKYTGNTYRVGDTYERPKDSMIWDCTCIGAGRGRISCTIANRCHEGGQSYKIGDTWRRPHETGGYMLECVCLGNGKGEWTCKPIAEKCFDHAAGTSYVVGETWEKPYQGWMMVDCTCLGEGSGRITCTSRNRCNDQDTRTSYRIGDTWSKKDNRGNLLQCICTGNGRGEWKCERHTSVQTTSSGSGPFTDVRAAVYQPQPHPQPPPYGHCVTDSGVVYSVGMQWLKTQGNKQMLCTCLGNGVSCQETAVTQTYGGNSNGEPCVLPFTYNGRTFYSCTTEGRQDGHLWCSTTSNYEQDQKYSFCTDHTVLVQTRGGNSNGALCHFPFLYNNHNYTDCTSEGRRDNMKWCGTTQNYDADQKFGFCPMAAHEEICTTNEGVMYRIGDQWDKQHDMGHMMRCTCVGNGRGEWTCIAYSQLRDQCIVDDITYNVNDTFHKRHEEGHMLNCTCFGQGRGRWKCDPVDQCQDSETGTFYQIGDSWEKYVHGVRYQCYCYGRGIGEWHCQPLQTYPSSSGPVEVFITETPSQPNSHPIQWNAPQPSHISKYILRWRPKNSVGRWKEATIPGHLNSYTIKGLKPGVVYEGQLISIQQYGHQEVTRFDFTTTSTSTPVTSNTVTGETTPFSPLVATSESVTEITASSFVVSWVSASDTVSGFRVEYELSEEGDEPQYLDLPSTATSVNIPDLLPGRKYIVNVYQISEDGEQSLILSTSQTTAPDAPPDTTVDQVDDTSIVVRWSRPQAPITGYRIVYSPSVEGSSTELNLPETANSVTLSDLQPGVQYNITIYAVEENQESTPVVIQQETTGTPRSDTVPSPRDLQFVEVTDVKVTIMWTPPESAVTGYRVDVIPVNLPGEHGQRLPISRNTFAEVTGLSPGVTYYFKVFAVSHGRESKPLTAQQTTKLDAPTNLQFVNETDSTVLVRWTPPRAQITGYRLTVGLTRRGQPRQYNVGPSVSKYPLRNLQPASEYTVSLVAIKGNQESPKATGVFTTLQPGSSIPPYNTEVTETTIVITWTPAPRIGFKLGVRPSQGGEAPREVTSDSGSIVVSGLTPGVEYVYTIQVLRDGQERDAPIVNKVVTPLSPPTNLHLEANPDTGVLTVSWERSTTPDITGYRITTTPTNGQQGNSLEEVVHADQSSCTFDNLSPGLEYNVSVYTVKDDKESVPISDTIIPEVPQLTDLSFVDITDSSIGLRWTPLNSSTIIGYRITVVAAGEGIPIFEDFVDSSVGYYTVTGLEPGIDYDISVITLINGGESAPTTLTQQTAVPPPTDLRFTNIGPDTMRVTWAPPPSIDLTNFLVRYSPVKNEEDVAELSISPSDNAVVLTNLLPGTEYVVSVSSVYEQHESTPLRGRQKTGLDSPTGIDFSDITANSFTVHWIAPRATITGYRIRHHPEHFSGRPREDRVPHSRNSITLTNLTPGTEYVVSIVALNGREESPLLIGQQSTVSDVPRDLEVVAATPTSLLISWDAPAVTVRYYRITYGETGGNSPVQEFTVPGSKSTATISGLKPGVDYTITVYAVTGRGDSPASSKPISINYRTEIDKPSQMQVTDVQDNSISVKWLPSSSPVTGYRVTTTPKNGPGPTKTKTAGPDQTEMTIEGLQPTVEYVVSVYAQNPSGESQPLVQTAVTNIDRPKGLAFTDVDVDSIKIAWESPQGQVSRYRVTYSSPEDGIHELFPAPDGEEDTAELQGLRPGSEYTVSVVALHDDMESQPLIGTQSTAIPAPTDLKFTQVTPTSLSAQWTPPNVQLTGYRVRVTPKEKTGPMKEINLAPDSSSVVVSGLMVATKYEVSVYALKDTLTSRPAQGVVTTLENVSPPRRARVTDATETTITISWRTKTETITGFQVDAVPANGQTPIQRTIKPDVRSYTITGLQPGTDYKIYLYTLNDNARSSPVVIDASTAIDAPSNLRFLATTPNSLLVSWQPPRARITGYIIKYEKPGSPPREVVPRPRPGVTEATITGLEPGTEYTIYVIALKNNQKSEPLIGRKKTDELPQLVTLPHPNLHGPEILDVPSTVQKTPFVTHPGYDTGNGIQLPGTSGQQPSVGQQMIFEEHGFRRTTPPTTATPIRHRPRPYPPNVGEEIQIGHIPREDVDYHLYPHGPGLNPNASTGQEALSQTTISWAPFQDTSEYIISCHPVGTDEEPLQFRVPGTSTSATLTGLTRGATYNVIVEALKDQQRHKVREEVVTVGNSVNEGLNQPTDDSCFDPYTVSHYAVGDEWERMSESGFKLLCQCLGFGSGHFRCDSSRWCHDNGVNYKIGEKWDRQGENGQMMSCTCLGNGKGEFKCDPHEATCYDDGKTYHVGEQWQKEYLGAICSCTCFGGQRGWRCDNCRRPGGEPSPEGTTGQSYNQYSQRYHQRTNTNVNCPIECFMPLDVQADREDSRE

Take ZM4.1 (commercial anti-ILT3 antibody): the average fluorescence in assay [1] is 118.
On to “fibronectin (FN1), P02751 32-2477 (ligand)”, for which the decrease in IL-8 secretion from THP-1 cells activated with immobilized Rituximab in assay [2] worked out at 67%.
